Test [1] deals with T1, EGFRvIII cells (expressing EGFRvIII) (Homo sapiens, UniProt P00533, DELINS30-297G).
T1 construct: host or cells: CLTH/EGFRvIII, established from human embryo kidney cells
The test is described as follows: Flow cytometry cellular binding of FITC-Ahx-peptides on EGFRvIII cells. To be noted: for Normalized MFI vIII: 10 µM FITC-Ahx-peptide, 20 min at RT, EGFRvIII cells. From the text: (§1) 293T human embryo kidney cells (Sigma; #85120602-1VL), CLTH/EGFR WT cells (Celther; #CL 01010-CLTH) and CLTH/EGFRvIII cells (Celther; #CL 01001-CLTH) were purchased from Sigma and Celther accordingly. CLTH/EGFR WT and CLTH/EGFRvIII cell lines are established from human embryo kidney cells to stably express EGFR WT and EGFRvIII proteins respectively. The three types of cells were maintained in Dulbecco's modified Eagle media (high glucose) supplemented with 10% fetal bovine serum (FBS), 100 U/mL penicillin, […] streptomycin and 1% MEM NEAA. The cells were cultured at 37° C. in a humidified atmosphere containing 5% CO2.
(§2) On FITC-Ahx-peptides. Flow cytometry analysis was also performed to quantitatively analyze the binding affinity of the synthetized peptides to the different cell types. Briefly, 293T, CLTH/EGFR WT and CLTH/EGFRvIII cells (100 000 cells, 500 μL) were plated in 24-well plates and incubated overnight at 37° C. in a humidified atmosphere containing 5% CO2 overnight. […] Cells were analyzed by flow cytometry on a MACSQuant Analyser 16 (Miltenyi Biotec) using the MACS Quantify software to acquire and process the data. LIVE/DEAD™ Fixable dye was excited at 640 nm and fluorescence was collected with the 785/62 nm filter. FITC was excited at 488 nm and fluorescence was collected with the 525/50 nm filter. Viable cells were gated, FITC fluorescence intensity was recorded and the mean fluorescence intensity (MFI) was measured. MFI values were then normalized by substracting MFI from blank cells and dividing by the correction factor determined using a spectrofluorimeter.
Since FITC fluorescence can be impacted by the nature of the amino acids in the peptide sequence and since the conjugation rate of FITC in the peptide synthesis can fluctuate, it was needed to measure a correction factor according to the fluorescence intensity of each peptide. As flow cytometry cannot analyze fluorescence of small molecules, a spectrofluorimeter was used in similar conditions (excitation and emission) to the flow cytometry conditions.
(Flow cytometry measures light scatter and fluorescence of single cells or particles in a stream.)

The target in test [2] is T2, EGFR WT cells (expressing EGFR WT) (Homo sapiens, UniProt P00533).
T2 construct: host or cells: CLTH/EGFR WT, established from human embryo kidney cells
Nature of the test: Flow cytometry cellular binding of FITC-Ahx-peptides on EGFR WT cells. To be noted: 10 µM FITC-Ahx-peptide, 20 min at RT.
Excerpt: as §1
as §2, with “types.” for “types. Briefly, 293T, CLTH/EGFR WT and CLTH/EGFRvIII cells (100 000 cells, 500 μL) were plated in 24-well plates and incubated overnight at 37° C. in a humidified atmosphere containing 5% CO2 overnight.”, “spectrofluorimeter. […]” for “spectrofluorimeter.”

In a further test the test system is 293T cells. Nature of the test: Flow cytometry cellular binding of FITC-Ahx-peptides on 293T cells. On the set-up: species or system human. The settings on record: 10 µM FITC-Ahx-peptide, 20 min at RT.
Excerpt: as §1, §2
Since FITC fluorescence can be impacted by the nature of the amino acids in the peptide sequence and since the conjugation rate of FITC in the peptide synthesis can fluctuate, it was needed to measure a correction factor according to the fluorescence intensity of each peptide. As flow cytometry cannot analyze fluorescence of small molecules, a spectrofluorimeter was used in similar conditions (excitation and emission) to the flow cytometry conditions. […] Linear regressions were determined for each peptide. […]

Test [3] concerns the target T3, CLTH/EGFRvIII cells expressing hEGFRvIII (Homo sapiens, UniProt P00533, DELINS30-297G).
T3 construct: host or cells: CLTH/EGFRvIII, established from human embryo kidney cells
Nature of the test: Flow cytometry binding of phage displayed peptides on hEGFRvIII cells. The settings on record: phage displayed peptide, vs hEGFR WT and 293T cells.
Excerpt: as §1
Cell cultures and flow cytometry experiments with phages or peptides were performed by Institut Mondor de Recherche Biomédicale (IMRB U955, France). […] Anti-IgG1 conjugated to phycoerythrin (PE) (Miltenyi Biotec) was used as a secondary antibody to read the fluorescence of PE. […]
On phages. […] Cells were analyzed by flow cytometry on a MACSQuant Analyser 16 (Miltenyi Biotec) using the MACS Quantify software to acquire and process the data. Viobility™ 405/520 fixable dye was excited at 405 nm and fluorescence was collected with the 525/50 nm filter. PE was excited at 488 nm and fluorescence was collected with the 579/34 nm filter. Viable cells were gated, and PE fluorescence intensity was recorded.

The target of test [4] is human EGF receptor variant III (EGFRvIII) on CLTH/EGFRvIII cells (human) (UniProt P00533). Nature of the test: flow cytometry, normalized MFI on EGFRvIII cells over normalized MFI on EGFR WT cells.
Test [5] has the same target. Nature of the test: flow cytometry, 10 uM FITC-Ahx-peptide, 20 min RT, CLTH/EGFRvIII cells; MFI minus blank cells, divided by correction factor.
Test [6] addresses T4, human EGF receptor variant III (EGFRvIII) on CLTH/EGFRvIII cells (human, UniProt P00533 25-1210).
T4 construct: whole, on cells
The test is described as follows: flow cytometry, phage on CLTH/EGFRvIII cells, anti-M13-biotin plus anti-biotin-PE.

Test [7] has as its target human wild type EGF receptor (EGFR WT) on CLTH/EGFR WT cells (human) (UniProt P00533). The test is described as follows: flow cytometry, 10 uM FITC-Ahx-peptide, 20 min RT, CLTH/EGFR WT cells; MFI minus blank cells, divided by correction factor.

No end group written: not given here. *: point of attachment. FITC = O=C1OC2(c3ccc(O)cc3Oc3cc(O)ccc32)c2ccc(NC(=S)*)cc21; Ahx = NCCCCCC(=O)O

Take “FITC-Ahx-YHWYGYTPENVI-CONH2: literature control peptide YHWYGYTPENVI (SEQ ID NO:6) linked to the FITC-Ahx tag ({FITC-Ahx}-YHWYGYTPENVI-NH2; SMILES CC[C@H](C)[C@H](NC(=O)[C@@H](NC(=O)[C@H](CC(N)=O)NC(=O)[C@H](CCC(=O)O)NC(=O)[C@@H]1CCCN1C(=O)[C@@H](NC(=O)[C@H](Cc1ccc(O)cc1)NC(=O)CNC(=O)[C@H](Cc1ccc(O)cc1)NC(=O)[C@H](Cc1c[nH]c2ccccc12)NC(=O)[C@H](Cc1c[nH]cn1)NC(=O)[C@H](Cc1ccc(O)cc1)NC(=O)CCCCCNC(=S)Nc1ccc2c(c1)C(=O)OC21c2ccc(O)cc2Oc2cc(O)ccc21)[C@@H](C)O)C(C)C)C(N)=O)”: the “Normalized MFI vIII” value in test [1] turned out to be 9.7. Also, the “Normalized MFI WT” value in test [2] is given as 4.5. The “Normalized MFI 293T” value in the test with 293T cells was determined as 7.6.
Consider “FITC-Ahx-VLGREEWSTSW-CONH2: VLGREEWSTSYW conjugated with FITC at the N-terminus via 6-aminohexanoic acid (Ahx) linker”, for which, in the test with 293T cells, the “Normalized MFI 293T” value amounted to 5.1.
With “FITC-Ahx-FALGEA-CONH2: literature control peptide FALGEA (SEQ ID NO:5) linked to the FITC-Ahx tag ({FITC-Ahx}-FALGEA-NH2; SMILES CC(C)C[C@H](NC(=O)[C@H](C)NC(=O)[C@H](Cc1ccccc1)NC(=O)CCCCCNC(=S)Nc1ccc2c(c1)C(=O)OC21c2ccc(O)cc2Oc2cc(O)ccc21)C(=O)NCC(=O)N[C@@H](CCC(=O)O)C(=O)N[C@@H](C)C(N)=O)”, in test [1], the “Normalized MFI vIII” value turned out to be 1.8. The “Normalized MFI ratio VIII/WT” value in test [1] (normalized MFI of vIII cell line over WT cell line) worked out at 2.6. Also, the “Normalized MFI WT” value in test [2] was determined as 0.7. In addition, the “Normalized MFI 293T” value with 293T cells turned out to be 0.9.
As for “LEKGNTLSTSTV (phage displayed; Peptide selected from the NGS analysis, not showing specific binding to hEGFRvIII cells in flow cytometry) [peptide selected from NGS analysis of biopanning]”, in test [3], the “specific binding to hEGFRvIII” value is “did not show specific binding”.
On to “NESGITRIALQD (Peptide selected from the NGS analysis, not showing specific binding to hEGFRvIII cells in flow cytometry) [peptide selected from NGS analysis of biopanning]”, for which, in test [3], the “specific binding to hEGFRvIII” value is on record as “did not show specific binding”.

B1: FITC-Ahx-FALGEA-CONH2 (peptide)
peptide: {FITC-Ahx}-FALGEA-NH2
SMILES: CC(C)C[C@H](NC(=O)[C@H](C)NC(=O)[C@H](Cc1ccccc1)NC(=O)CCCCCNC(=S)Nc1ccc2c(c1)C(=O)OC21c2ccc(O)cc2Oc2cc(O)ccc21)C(=O)NCC(=O)N[C@@H](CCC(=O)O)C(=O)N[C@@H](C)C(N)=O
Consider B1, for which the Normalized MFI ratio vIII/WT in test [4] came to 2.6. The molecule further had a Normalized MFI in test [5] of 1.8.

B2: NESGITRIALQD phage displayed peptide (peptide)
peptide: NESGITRIALQD
modifications: also: displayed on M13 phage coat protein
notes: not shown: M13 coat protein of the Ph.D.-12 library that carries the peptide
B2: the binding result in test [6] is on record as “no binding”.

B3: FITC-Ahx-…-CONH2 (peptide)
peptide: {FITC-Ahx}-YHWYGYTPENVI-NH2
SMILES: CC[C@H](C)[C@H](NC(=O)[C@@H](NC(=O)[C@H](CC(N)=O)NC(=O)[C@H](CCC(=O)O)NC(=O)[C@@H]1CCCN1C(=O)[C@@H](NC(=O)[C@H](Cc1ccc(O)cc1)NC(=O)CNC(=O)[C@H](Cc1ccc(O)cc1)NC(=O)[C@H](Cc1c[nH]c2ccccc12)NC(=O)[C@H](Cc1c[nH]cn1)NC(=O)[C@H](Cc1ccc(O)cc1)NC(=O)CCCCCNC(=S)Nc1ccc2c(c1)C(=O)OC21c2ccc(O)cc2Oc2cc(O)ccc21)[C@@H](C)O)C(C)C)C(N)=O
B3: the Normalized MFI in test [7] amounted to 4.5.

B4: LEKGNTLSTSTV phage displayed peptide (peptide)
peptide: LEKGNTLSTSTV
modifications: also: displayed on M13 phage coat protein
notes: as for B2
For B4, the binding result in test [6] is “no binding”.
